The results in this text go back to the supplement of paper PMC10567573.

± gives the standard deviation.

A short description of the data set: protein stability index of a GFP-peptide fusion (GPS, HEK-293T) (PSI 1-6); higher = more stable.
The mark [1] stands for this setting: treatment: DMSO, c terminus: a fixed tail appended.
Where [2] appears, read: treatment: MLN4924 1 uM, 8 h, c terminus: a fixed tail appended.
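Further: 24-mer peptide tiles fused after GFP, lentivirally expressed, FACS-sorted into six equal bins by GFP/DsRed ratio, decoded by Illumina sequencing, PSI is the read-weighted mean bin number.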

For the sequence VIQAVQKSEEGHPFKAYLDVDITL [RTN3], the protein stability index runs as follows: under setting [1], 2.23 ± 0.59; under setting [2], 2.18 ± 0.39.

Take VIRGLNTIPLFVQLLYSPIENIQR [CTNNB1]: the protein stability index is, setting by setting: under setting [1], 2.76 ± 0.3; under setting [2], 2.68 ± 0.4.

Consider VKALEDFEDLCDRVFSDEDSELDN [FAM9B], for which the protein stability index was found to be 5.34 ± 0.26 under setting [1] and 5.28 ± 0.27 under setting [2].

In turn, VKCFNDLKAEELLLKIHEVSTVSH [CASP6] yielded a protein stability index under setting [1] of 2.23 ± 0.24 and a protein stability index under setting [2] of 2.44 ± 0.16.

Regarding VKEELSQKFDTLYAILDEKKSELL [TRIM63], the protein stability index runs as follows: under setting [1], 3.6 ± 0.41; under setting [2], 3.58 ± 0.17.

For the sequence VKFISNPPSMVAAGSVVAAVQGLN [CCND1], the protein stability index came to 2.43 ± 0.62 under setting [1] and 2.42 ± 0.24 under setting [2].

VKMLGSPVDSVLFYAITTLHNLLL [CTNNB1]: the protein stability index under setting [1] is 2.47 ± 0.59 and the protein stability index under setting [2] turned out to be 2.48 ± 0.6.

In the case of VLDSLLLTLLPQLQEAWQQRTPSP [RSAD1], the protein stability index reads like this: under setting [1], 2.85 ± 0.052; under setting [2], 3.27 ± 0.43.

Consider VLEHSLDREEEAIHHLVLTASDGG [PCDHGA10], for which the protein stability index reads like this: under setting [1], 4.66 ± 0.18; under setting [2], 4.84 ± 0.17.

As for VLERAACLRRCKRTLPAFQVPYPP [P3H4], the protein stability index is 2.16 ± 0.29 under setting [1] and 2.16 ± 0.19 under setting [2].

Turning to VLLEEPLPLETARESPSFKLEPME [ZNF263], the protein stability index reads like this: under setting [1], 4.02 ± 0.24; under setting [2], 4.284 ± 0.038.

In the case of VLPPRQPSALVPSVTEYRLDGHTI [MYBL2], the protein stability index under setting [1] came to 3.35 ± 0.35 and the protein stability index under setting [2] stood at 3.41 ± 0.24.

Regarding VPGIFCAGADLKERAKMSSSEVGP [AUH], the protein stability index is, setting by setting: under setting [1], 3.59 ± 0.34; under setting [2], 3.64 ± 0.29.

Consider VPHNGSSEATLPAQMSTLHVSPPP [PDLIM4], for which the protein stability index came out at 4.87 ± 0.17 under setting [1] and 4.73 ± 0.19 under setting [2].

As to VQGPGVVGEFPIISPGRVYEYTSC [FBXO3], the protein stability index under setting [1] amounted to 2.72 ± 0.52 and the protein stability index under setting [2] amounted to 3 ± 0.32.

Regarding VQQQKLAEERRRQNLQEEKERKLE [FAF2], the protein stability index is, setting by setting: under setting [1], 4.87 ± 0.15; under setting [2], 5.19 ± 0.43.

As for VQRVMAQALGIPATECEFVGSLPV [LPCAT4], the protein stability index is 2.78 ± 0.25 under setting [1] and 2.76 ± 0.3 under setting [2].

With VRAHQDTQRRTSMGGTQQQFVEGV [CTNNB1], the protein stability index is 4.232 ± 0.018 under setting [1] and 4.24 ± 0.14 under setting [2].

On to VRKKERGREEKCVWKHGITPPLKN [TAF7L], for which the protein stability index reads like this: under setting [1], 3.85 ± 0.41; under setting [2], 3.83 ± 0.3.

Take VRLAARQEDAPMIEPLVPEEKMET [EPB41L3]: the protein stability index under setting [1] came out at 4.9 ± 0.16 and the protein stability index under setting [2] came out at 5.17 ± 0.24.

As for VRLKPALQRLDFSVRGYMMSKQRE [RETREG3], the protein stability index reads like this: under setting [1], 2.64 ± 0.48; under setting [2], 2.7 ± 0.44.

As to VRLRTLLCKVLGVLFSVAGGLFVG [CLCN6], the protein stability index was 2.87 ± 0.14 under setting [1] and 2.88 ± 0.17 under setting [2].

As to VRRQRSADEQLHCAGKAKRSGGHA [ESR2], the protein stability index runs as follows: under setting [1], 4.51 ± 0.32; under setting [2], 4.75 ± 0.13.

Take VRSQYPNQPTRFGKLLLRLPSLRT [NR2F2]: the protein stability index came to 2.42 ± 0.16 under setting [1] and 2.49 ± 0.23 under setting [2].

Take VSKGAESSRSSEESSSDSGSSDSE [BRD3]: the protein stability index under setting [1] is 5.61 ± 0.24 and the protein stability index under setting [2] came to 5.6 ± 0.41.

On to VTHTLTMRQRISRVEESALRALRE [PPEF2], for which the protein stability index is 3.5 ± 0.38 under setting [1] and 3.86 ± 0.012 under setting [2].

As for VTLALFFVLYFLLACWTYGISVPS [CLCN6], the protein stability index runs as follows: under setting [1], 2.95 ± 0.27; under setting [2], 2.98 ± 0.19.

VTLKTAVDGPDLEMLTGQERVALA [FKBP8]: the protein stability index was 3.7 ± 0.23 under setting [1] and 3.81 ± 0.24 under setting [2].

As to VVEEILELHIHRLRYLSSIWNILD [PKD2L1], the protein stability index was found to be 3.29 ± 0.65 under setting [1] and 3.04 ± 0.3 under setting [2].

As to VVMNLDSRLLIFPLYICCNFLYIS [GMCL1], the protein stability index worked out at 2.59 ± 0.59 under setting [1] and 2.94 ± 0.36 under setting [2].

As to VWMDDFKSHVYMAWNIPMSNPGVD [GALNT9], the protein stability index is, setting by setting: under setting [1], 2.21 ± 0.3; under setting [2], 2 ± 0.2.

As to VYIFATCLGLSYDGLLGDNQIMPK [MAGEA6], the protein stability index by setting is: under setting [1], 2.82 ± 0.52; under setting [2], 2.44 ± 0.44.

Regarding VYSNTIQSIIAIIRAMGRLKIDFG [GNAI1], the protein stability index turned out to be 2.7 ± 0.53 under setting [1] and 2.13 ± 0.29 under setting [2].

For VYVSNMTDKLVTPGKYFSAAEYHA [IQUB], the protein stability index came out at 2.14 ± 0.47 under setting [1] and 1.96 ± 0.15 under setting [2].

With WCSVAYWEHRTRVGRLYAVYDQAV [SMAD6], the protein stability index came to 2.44 ± 0.43 under setting [1] and 2.18 ± 0.16 under setting [2].

On to WHDTCFVCAICQINLEGKTFYSKK [PDLIM7], for which the protein stability index came out at 2.24 ± 0.29 under setting [1] and 2.21 ± 0.15 under setting [2].

With WKITIYDQENFQGKRMEFTSSCPN [CRYBA1], the protein stability index amounted to 2.26 ± 0.38 under setting [1] and 2.15 ± 0.23 under setting [2].

For the sequence WTAPLVMRTTNLDNRCKLFDSPSL [CDC25A], the protein stability index runs as follows: under setting [1], 2.4 ± 0.17; under setting [2], 2.52 ± 0.28.

Turning to YAYSNGIDYKTTTILLDGRRVRLE [RAB40C], the protein stability index amounted to 2.68 ± 0.3 under setting [1] and 2.56 ± 0.34 under setting [2].

In turn, YDCGEDFYRSTAPSEDIWKKFELV [MYCL] yielded a protein stability index under setting [1] of 2.96 ± 0.19 and a protein stability index under setting [2] of 3.33 ± 0.22.

YDFIVTKARGKSGPLFNFDVHDDV [FAM50A]: the protein stability index runs as follows: under setting [1], 2.65 ± 0.23; under setting [2], 2.78 ± 0.45.

Regarding YDRRVIRGNTYALQTGPLLGRPDS [RSPH3], the protein stability index is, setting by setting: under setting [1], 3.29 ± 0.24; under setting [2], 3.56 ± 0.25.

As for YGFYDECLRKYGNANVWKYFTDLF [PPP2CA], the protein stability index by setting is: under setting [1], 2.5 ± 0.21; under setting [2], 2.67 ± 0.38.

Consider YGNGMRKSPEMPVILEVSLEGSHD [RTP4], for which the protein stability index is 3.58 ± 0.26 under setting [1] and 3.97 ± 0.41 under setting [2].

Consider YHSQDELGGFSHWGRLTSYSGGGY [PKD2L1], for which the protein stability index is, setting by setting: under setting [1], 2.66 ± 0.6; under setting [2], 2.52 ± 0.34.

As to YKCSWCGKSFSQNTNLHTHQRTHT [ZNF75A], the protein stability index reads like this: under setting [1], 4.65 ± 0.45; under setting [2], 4.29 ± 0.54.

Take YKEKFGITDLPRIDVSKREPPPVK [EFHC1]: the protein stability index under setting [1] came to 3.67 ± 0.38 and the protein stability index under setting [2] was 4.04 ± 0.23.

Take YKLVGSPPWKEAFRQRCLERMRNS [RPAIN]: the protein stability index amounted to 2.74 ± 0.32 under setting [1] and 2.98 ± 0.52 under setting [2].

For YKQLGSAGEGLPQVYYFGPCGKYN [CSNK1G1], the protein stability index was 3.05 ± 0.65 under setting [1] and 2.16 ± 0.2 under setting [2].

For the sequence YKRQEESGAAASLNVDAAVQQWLQ [CHIT1], the protein stability index is, setting by setting: under setting [1], 4.22 ± 0.086; under setting [2], 4.1 ± 0.094.

Turning to YLAHASDVLENAFAPLLDEQYDLA [GOLPH3], the protein stability index reads like this: under setting [1], 2.83 ± 0.21; under setting [2], 3.12 ± 0.36.

Regarding YLAMLERFQDGDNILEKEVLPPIH [FEM1B], the protein stability index by setting is: under setting [1], 2.73 ± 0.19; under setting [2], 2.93 ± 0.24.

On to YLELDRLVWRNSIRSSFISSLSFF [FBXO39], for which the protein stability index reads like this: under setting [1], 2.86 ± 0.37; under setting [2], 2.95 ± 0.45.

With YLFWEFATDNYDIGFGVYFEWTDS [ACBD3], the protein stability index runs as follows: under setting [1], 3.14 ± 0.85; under setting [2], 1.93 ± 0.72.

Consider YLLPDTCFRMQINHAIDIICGFLK [OAS1], for which the protein stability index under setting [1] amounted to 2.27 ± 0.3 and the protein stability index under setting [2] was 2.1 ± 0.33.

Regarding YLYFLFCPTLIYRETYPRTPYVRW [SOAT2], the protein stability index runs as follows: under setting [1], 2.67 ± 0.76; under setting [2], 2.58 ± 0.29.

YPQDLPRPLRSREFPQFEPQRYPA [TRAF3IP2]: the protein stability index under setting [1] is 3.93 ± 0.3 and the protein stability index under setting [2] turned out to be 3.6 ± 0.41.

On to YQGGPPRPPMGMRPPVMSQGGRY [ZNF207], for which the protein stability index runs as follows: (treatment: DMSO, c terminus: native) 2.56 ± 0.27; (treatment: MLN4924 1 uM, 8 h, c terminus: native) 2.84 ± 0.3.

With YRVWKKMLASVESVPFSFDPNTAA [TRIM35], the protein stability index under setting [1] was 2.06 ± 0.28 and the protein stability index under setting [2] came out at 2.3 ± 0.14.

Turning to YSEEECKQYKAVVYSNTIQSIIAI [GNAI1], the protein stability index turned out to be 2.35 ± 0.63 under setting [1] and 2.06 ± 0.33 under setting [2].

In the case of YTSQITVEEGNVQTLLPAACLLQL [KLHL20], the protein stability index is, setting by setting: under setting [1], 2.28 ± 0.061; under setting [2], 2.3 ± 0.25.

For YVHHQALLDVKNIAHQNKFGEDMP [HDAC6], the protein stability index stood at 2.83 ± 0.54 under setting [1] and 3.49 ± 0.57 under setting [2].

As for YWGSPEEQSLLSRWNPWSTEVPYA [TPRG1], the protein stability index stood at 2.09 ± 0.14 under setting [1] and 2.23 ± 0.28 under setting [2].
